# Results taken from patent US20220235136A1 (YALE UNIVERSITY, published 2022).
# B1: IGFBP7 fused to a C-terminal Ig (made in transfected HEK293T cells, used as supernatant) (Fc fusion, not shown: a dimerising Fc or GST; small tags and cut ends)
# chain: SSSDTCGPCEPASCPPLPPLGCLLGETRDACGCCPMCARGEGEPCGGGGAGRGYCAPGMECVKSRKRRKGKAGAAAGGPGVSGVCVCKSRYPVCGSDGTTYPSGCQLRAASQRAESRGEKAITQVSKGTCEQGPSIVTPPKDIWNVTGAQVYLSCEVIGIPTPVLIWNKVKRGHYGVQRTELLPGDRDNLAIQTRGGPEKHEVTGWVLVSPLSKEDAGEYECHASNSQGQASASAKITVVDALHEIPVKKGEGAEL
# notes: also called Fc tagged fusion protein of IGFBP7
# B2: IGFBP4 (Fc fusion, human, UniProt P22692 22-258, looked up)
# fusion chain: DEAIHCPPCSEEKLARCRPPVGCEELVREPGCGCCATCALGLGMPCGVYTPRCGSGLRCYPPRGVEKPLHTLMHGQGVCMELAEIEAIQESLQPSDKDEGDHPNNSFSPCSAHDRRCLQKHFAKIRDRSTSGGKMKVNGAPREDARPVPQGSCQSELHRALERLAASQSRTHEDLYIIPIPNCDRNGNFHPKQCHPALDGQRGKCWCVDRKTGVKLPGGLEPKGELDCHQLADSFRE
# notes: member of the group m19; HEK293T supernatant
# B3: IGFBP6 (Fc fusion, human, UniProt P24592 28-240, looked up)
# fusion chain: RCPGCGQGVQAGCPGGCVEEEDGGSPAEGCAEAEGCLRREGQECGVYTPNCAPGLQCHPPKDDEAPLRALLLGRGRCLPARAPAVAEENPKESKPQAGTARPQDVNRRDQQRNPGTSTTPSQPNSAGVQDTEMGPCRRHLDSVLQQLQTEVYRGAQTLYVPNCDHRGFYRKRQCRSSQGQRRGPCWCVDRMGKSLPGSPDGNGSSSCPTGSSG
# notes: as for B2
# B4: KAZALD1 (Fc fusion, human, UniProt Q96I82 31-304, looked up)
# fusion chain: RPSPGPDYLRRGWMRLLAEGEGCAPCRPEECAAPRGCLAGRVRDACGCCWECANLEGQLCDLDPSAHFYGHCGEQLECRLDTGGDLSRGEVPEPLCACRSQSPLCGSDGHTYSQICRLQEAARARPDANLTVAHPGPCESGPQIVSHPYDTWNVTGQDVIFGCEVFAYPMASIEWRKDGLDIQLPGDDPHISVQFRGGPQRFEVTGWLQIQAVRPSDEGTYRCLGRNALGQVEAPASLTVLTPDQLNSTGIPQLRSLNLVPEEEAESEENDDYY
# notes: as for B2
# B5: WISP1 (Fc fusion, human, UniProt O95388 23-367, looked up)
# fusion chain: TALSPAPTTMDFTPAPLEDTSSRPQFCKWPCECPPSPPRCPLGVSLITDGCECCKMCAQQLGDNCTEAAICDPHRGLYCDYSGDRPRYAIGVCAQVVGVGCVLDGVRYNNGQSFQPNCKYNCTCIDGAVGCTPLCLRVRPPRLWCPHPRRVSIPGHCCEQWVCEDDAKRPRKTAPRDTGAFDAVGEVEAWHRNCIAYTSPWSPCSTSCGLGVSTRISNVNAQCWPEQESRLCNLRPCDVDIHTLIKAGKKCLAVYQPEASMNFTLAGCISTRSYQPKYCGVCMDNRCCIPYKSKTIDVSFQCPDGLGFSRQVLWINACFCNLSCRNPNDIFADLESYPDFSEIAN
# notes: as for B2
# B6: WISP3 (Fc fusion, human, UniProt O95389 24-354, looked up)
# fusion chain: TGPLDTTPEGRPGEVSDAPQRKQFCHWPCKCPQQKPRCPPGVSLVRDGCGCCKICAKQPGEICNEADLCDPHKGLYCDYSVDRPRYETGVCAYLVAVGCEFNQVHYHNGQVFQPNPLFSCLCVSGAIGCTPLFIPKLAGSHCSGAKGGKKSDQSNCSLEPLLQQLSTSYKTMPAYRNLPLIWKKKCLVQATKWTPCSRTCGMGISNRVTNENSNCEMRKEKRLCYIQPCDSNILKTIKIPKGKTCQPTFQLSKAEKFVFSGCSSTQSYKPTFCGICLDKRCCIPNKSKMITIQFDCPNEGSFKWKMLWITSCVCQRNCREPGDIFSELKIL
# notes: as for B2
# B7: NOV (Fc fusion, not shown: a dimerising Fc or GST; small tags and cut ends)
# chain: TQRCPPQCPGRCPATPPTCAPGVRAVLDGCSCCLVCARQRGESCSDLEPCDESSGLYCDRSADPSNQTGICTAVEGDNCVFDGVIYRSGEKFQPSCKFQCTCRDGQIGCVPRCQLDVLLPEPNCPAPRKVEVPGECCEKWICGPDEEDSLGGLTLAAYRPEATLGVEVSDSSVNCIEQTTEWTACSKSCGMGFSTRVTNRNRQCEMLKQTRLCMVRPCEQEPEQPTDKKGKKCLRTKKSLKAIHLQFKNCTSLHTYKPRFCGVCSDGRCCTPHNTKTIQAEFQCSPGQIVKKPVMVIGTCTCHTNCPKNNEAFLQELELKTTRGKM
# notes: as for B2
# B8: CYR61 (Fc fusion, human, UniProt O00622 25-381, looked up)
# fusion chain: TCPAACHCPLEAPKCAPGVGLVRDGCGCCKVCAKQLNEDCSKTQPCDHTKGLECNFGASSTALKGICRAQSEGRPCEYNSRIYQNGESFQPNCKHQCTCIDGAVGCIPLCPQELSLPNLGCPNPRLVKVTGQCCEEWVCDEDSIKDPMEDQDGLLGKELGFDASEVELTRNNELIAVGKGSSLKRLPVFGMEPRILYNPLQGQKCIVQTTSWSQCSKTCGTGISTRVTNDNPECRLVKETRICEVRPCGQPVYSSLKKGKKCSKTKKSPEPVRFTYAGCLSVKKYRPKYCGSCVDGRCCTPQLTRTVKMRFRCEDGETFSKNVMMIQSCKCNYNCPHANEAAFPFYRLFNDIHKFRD
# notes: as for B2
# B9: CTGF (Fc fusion, human, UniProt P29279 27-349, looked up)
# fusion chain: QNCSGPCRCPDEPAPRCPAGVSLVLDGCGCCRVCAKQLGELCTERDPCDPHKGLFCHFGSPANRKIGVCTAKDGAPCIFGGTVYRSGESFQSSCKYQCTCLDGAVGCMPLCSMDVRLPSPDCPFPRRVKLPGKCCEEWVCDEPKDQTVVGPALAAYRLEDTFGPDPTMIRANCLVQTTEWSACSKTCGMGISTRVTNDNASCRLEKQSRLCMVRPCEADLEENIKKGKKCIRTPKISKPIKFELSGCTSMKTYRAKFCGVCTDGRCCTPHRTTTLPVEFKCPDGEVMKKNMMFIKTCACHYNCPGDNDIFESLYYRKMYGDMA
# notes: as for B2
# B10: ESM1 (Fc fusion, human, UniProt Q9NQ30 20-184, looked up)
# fusion chain: WSNNYAVDCPQHCDSSECKSSPRCKRTVLDDCGCCRVCAAGRGETCYRTVSGMDGMKCGPGLRCQPSNGEDPFGEEFGICKDCPYGTFGMDCRETCNCQSGICDRGTGKCLKFPFFQYSVTKSSNRFVSLTEHDMASGDGNIVREEVVKENAAGSPVMRKWLNPR
# notes: as for B2
# B11: IGFBP1 (Fc fusion, human, UniProt P08833 26-259, looked up)
# fusion chain: APWQCAPCSAEKLALCPPVSASCSEVTRSAGCGCCPMCALPLGAACGVATARCARGLSCRALPGEQQPLHALTRGQGACVQESDASAPHAAEAGSPESPESTEITEEELLDNFHLMAPSEEDHSILWDAISTYDGSKALHVTNIKKWKEPCRIELYRVVESLAKAQETSGEEISKFYLPNCNKNGFYHSRQCETSMDGEAGLCWCVYPWNGKRIPGSPEIRGDPNCQIYFNVQN
# notes: as for B2
# B12: IGFBP2 (Fc fusion, human, UniProt P18065 36-325, looked up)
# fusion chain: AEVLFRCPPCTPERLAACGPPPVAPPAAVAAVAGGARMPCAELVREPGCGCCSVCARLEGEACGVYTPRCGQGLRCYPHPGSELPLQALVMGEGTCEKRRDAEYGASPEQVADNGDDHSEGGLVENHVDSTMNMLGGGGSAGRKPLKSGMKELAVFREKVTEQHRQMGKGGKHHLGLEEPKKLRPPPARTPCQQELDQVLERISTMRLPDERGPLEHLYSLHIPNCDKHGLYNLKQCKMSLNGQRGECWCVNPNTGKLIQGAPTIRGDPECHLFYNEQQEARGVHTQRMQ
# notes: as for B2
# B13: Human IGFBP7 (Fc-tag), Sino Biological (Fc fusion)
# chain: SSSDTCGPCEPASCPPLPPLGCLLGETRDACGCCPMCARGEGEPCGGGGAGRGYCAPGMECVKSRKRRKGKAGAAAGGPGVSGVCVCKSRYPVCGSDGTTYPSGCQLRAASQRAESRGEKAITQVSKGTCEQGPSIVTPPKDIWNVTGAQVYLSCEVIGIPTPVLIWNKVKRGHYGVQRTELLPGDRDNLAIQTRGGPEKHEVTGWVLVSPLSKEDAGEYECHASNSQGQASASAKITVVDALHEIPVKKGEGAEL
# notes: Bought; also called IGFBP7-Ig; recombinant IGFBP7 protein; not shown: Fc tag of the bought fusion protein
# Biological target: T1, human CD93 on cells (CD93-transfected HEK293T cells; endogenous on HUVEC cells) (human, UniProt Q9NPY3 22-652)
# T1 construct: in the co-immunoprecipitation it comes from HUVEC lysate; also called CD93 transfectant; CD93+ 293 cells
# T1 sequence: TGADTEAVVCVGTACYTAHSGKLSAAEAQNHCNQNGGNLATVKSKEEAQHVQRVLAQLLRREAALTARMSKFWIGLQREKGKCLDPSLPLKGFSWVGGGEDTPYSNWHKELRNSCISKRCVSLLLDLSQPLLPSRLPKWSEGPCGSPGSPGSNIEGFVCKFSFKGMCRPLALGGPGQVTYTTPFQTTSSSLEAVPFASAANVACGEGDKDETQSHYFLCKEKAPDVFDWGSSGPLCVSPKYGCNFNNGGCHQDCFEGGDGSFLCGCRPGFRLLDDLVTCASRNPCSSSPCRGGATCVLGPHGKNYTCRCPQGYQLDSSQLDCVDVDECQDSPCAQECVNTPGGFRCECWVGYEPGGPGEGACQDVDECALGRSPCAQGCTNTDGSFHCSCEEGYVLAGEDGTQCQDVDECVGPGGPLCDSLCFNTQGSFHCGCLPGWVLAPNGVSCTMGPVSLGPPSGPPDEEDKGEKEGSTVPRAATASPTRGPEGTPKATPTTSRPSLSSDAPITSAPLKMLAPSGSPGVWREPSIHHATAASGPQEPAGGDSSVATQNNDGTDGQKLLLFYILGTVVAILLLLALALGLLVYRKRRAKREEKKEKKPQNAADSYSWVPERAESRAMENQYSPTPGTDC
# Experiment: flow cytometry, HEK293T supernatant on CD93 transfectant; binding index = MFI of CD93 transfectant / MFI of control
row,Binder,binding result
1,B1,binds

# Biological target: T1, human CD93 on cells (CD93-transfected …)
# Experiment: flow cytometry, HEK293T supernatant of the Fc-tagged protein on CD93 transfectant; binding index = MFI of CD93 transfectant / MFI of control cells
row,Binder,binding result
1,B2,no binding
2,B3,no binding
3,B4,no binding
4,B5,no binding
5,B6,no binding
6,B7,no binding
7,B8,no binding
8,B9,no binding
9,B10,no binding
10,B11,no binding
11,B12,no binding

# Biological target: T1, human CD93 on cells (CD93-transfected …)
# Experiment: flow cytometry, IGFBP7-Ig on CD93-transduced or control HEK293T cells
row,Binder,binding result
1,B13,binds
